Among the data in EP4782465A1 are Human insulin receptor subtype B activity (EC50) values, retold here.

For this experiment, the target named is Human insulin receptor subtype B (human), P06213. The experiment can be described thus: cell-based or functional assay.

B1: Fusion protein 1 (insulin analog 1 + L2 + IgG2 Fc1) (Fc fusion)
chain: FVNQHLCGEHLVEALYLVCGERGFHYGGGGGGSGGGGGIVEQCCESICSLEQLENYCGGGGGQGGGGQGGGGQGGGGGECPPCPAPPVAGPSVFLFPPKPKDTLMISRTPEVTCVVVDVSHEDPEVQFNWYVDGVEVHNAKTKPREEQFNSTFRVVSVLTVVHQDWLNGKEYKCKVSNKGLPAPIEKTISKTKGQPREPQVYTLPPSREEMTKNQVSLTCLVKGFYPSDIAVEWESNGQPENNYKTTPPMLDSDGSFFLYSKLTVDKSRWQQGNVFSCSVMHEALHNHYTQKSLSLSPG
With B1, the Human insulin receptor subtype B activity (EC50) was determined as 422 nM.
